Changes are numbered by the printed parent chain.
B1: NP3-C11 (antibody, V domains shown)
VH: EVQLVESGGGLVRPGGSLKLSCAASGFTFSDYYMYWVRQTPEKRLEWVATISDGGGYNYYPDSVKGRFTVSRDNAKNNLYLQMSSLKSEDTAMYYCVRDKYDGWGSDFDVWGAGTTVTVSS
VL: DIVMTQSPSLMSTSLGERVTMTCTANSSVSSNYMHWYQQKPGSSPKLWIYSTSNLASGVPARFSGSGSGTSYSLTISNMEAEDAATYYCHQFHRSPRTFGGGTKLEIK
B2: NP3-B12 (antibody, V domains shown)
VH: EVQLQQSGAELMKPGASVKISCKATGYTFSSYWIEWVKQRPGHGLEWIGEFFPGSGNTNYNEKFKGKATFTADTSSNTAYMQLSSLTSEDSAVYYCARRGLYDGYYVRYFDVWGAGTTVTVSS
VL: DIVLTQSPASLAVSLGQRATISCKASQSVDYDGYSYMNWYQQKPGQPPKLLIYAASNLESGIPARFSGSGSGTDFTLNIHPVEEEDAATYYCQQSNADPFTFGGGTKLELK
B3: NP3-C9 (antibody, V domains shown)
VH: QIQLVQSGPELKKPGETVKISCKASGYTFTDYSIHWVKQAPGKDLKWVGWINTETGEPTYADDFEGRFAFSLETSASTAFLQINNLKNEDTATYFCSRGAATGFWGQGTTLTVSS
VL: B2 VL with Y34D, A54V, E84D, S95T, A97E, F100L, G104A
B4: NP3-G8 (antibody, V domains shown)
VH: QVQLQQSGPELKKPGETVKISCKASGYTFTDYSMHWVKQAPGKGLKWLGWKNTESGEETFADDFKGRFDFSLETSASTVYLQIKNLKNEDTAAYFCARSGDIYAMDYWGQGTTVTVSS
VL: B2 VL with D1E, I2N, Y34G, N57T, R65G, A97E, F100W, L110I

Columns and labels:
[1] = target: T1, SARS-CoV-2 N protein, full-length (SARS-CoV-2, UniProt P0DTC9 1-419); test: Octet, KD (nM) heat map
T1 construct: mature; also called SARS-CoV-2 nucleoprotein

[2] = target: T2, SARS-CoV-2 N protein oligomerization domain (SARS-CoV-2, UniProt P0DTC9 247-364); test: Octet, KD (nM) heat map
T2 construct: also called N olig. domain; OD

[3] = target: T1, SARS-CoV-2 N protein, full-length; test: Octet (BLI) kinetics
[4] = target: T2, SARS-CoV-2 N protein oligomerization …; test: Octet (BLI) kinetics
[5] = target: SARS-CoV-2 N protein RNA-binding domain (SARS-CoV-2, UniProt P0DTC9 44-180); test: Octet, KD (nM) heat map

| Binder | binding result [1] | binding result [2] | Kd [3] | Kd [4] | binding result [5] |
| --- | --- | --- | --- | --- | --- |
| B1 | binds | no binding | – | – | – |
| B2 | – | – | 1 nM | 0.78 nM | no binding |
| B3 | – | no binding | 0.75 nM | – | no binding |
| B4 | – | – | 2.54 nM | 1.05 nM | no binding |

From patent publication US20250320278A1 (LA JOLLA INSTITUTE FOR IMMUNOLOGY, published 2025)
